One protein from patent publication US20170096652 can be followed below.

The target in the data set is transcription factor DdrO (Gene ID: 1798752; NP_296294.1) of Deinococcus radiodurans.

B1: PprI protease (gene pprI, dr_0167; GeneID: 1798483; NCBI-GI: 15805204) of Deinococcus radiodurans (protein)
chain: MPSANVSPPCPSGVRGGGMGPKAKAEASKPHPQIPVKLPFVTAPDALAAAKARMRDLAAAYVAALPGRDTHSLMAGVPGVDLKFMPLGWRDGAFDPEHNVILINSAARPERQRFTLAHEIGHAILLGDDDLLSDIHDAYEGERLEQVIETLCNVAAAAILMPEPVIAEMLERFGPTGRALAELAKRAEVSASSALYALTEQTPVPVIYAVCAPGKPPREQAASDEDAGPSTEKVLTVRASSSTRGVKYTLASGTPVPADHPAALALATGMEVREESYVPFRSGRKMKAEVDAYPSRGIVAVSFEFDPARLGRKDSEQADRDEPQDAAQ
On to B1, for which the “PprI cleavage activity detected by Western blotting” value is listed as “PprI cleaves DdrO into two fragments”; the “protease activity in vitro, SDS-PAGE (40 minutes, 2.0 mM MnCl2)” value is recorded as “DdrO was cleaved by PprI into two fragments”; the “protease activity in vitro, SDS-PAGE (40 minutes, 3.0 mM MnCl2)” value is given as “DdrO was cleaved by PprI into two fragments”; the “protease activity in vitro, SDS-PAGE (40 minutes, 5.0 mM MnCl2)” value is “DdrO was cleaved by PprI into two fragments”.
